Reference: US20230212587A1, “Mutant Hydroxyphenylpyruvate Dioxygenase Polypeptide, Encoding Gene Thereof and Use Therefor” (Beijing Dabeinong Biotechnology Co., Ltd., priority 2019, published 2023)

B1: CsHPPDm-F372V: Cucumis sativus HPPD mutant F372V, SEQ ID NO: 379 (protein)
chain: MGKEADFPRAPSEATDGGATASQSEFELQGFDNFIRTNPKSDRFKVKRFHHIEFWCTDATNVARRFSWGLGMQIVAKSDLSTGNMTHASYLLRSGHLCFLFTAPYSPSIAAAQNLTPASTASIPSFDHSVCRSFSGTHGFGARAIALEVEDAEIAFRTSVAHGAKPSCPPIVLENRAVLSEVHLYGDVVLRYISYKNPVSGDNGENKPDEWFLPKFEAMEETASFPLDFGIRRLDHAVGNVPELGPAVSYLKGFTGFHEFAEFTAEDVGTSESGLNSMVLANNEEMVLLPINEPVFGTKRKSQIQTYLEHNEGAGVQHLALMSEDIFRTLREMRKRSSVGGFEFMPSPPPTYYKNLKSRAGDVLTDEQIKECEELGILVDKDDQGTLLQIVTKPVGDRPTIFIEIIQRLGCMMKDEEGKAFQKGGCGGFGKGNFSELFKSIEEYEKTLEAKRVSE
modifications: CsHPPDm-F372V Amino Acid Sequence
B2: CaHPPDm-F372V: Cicer arietinum HPPD mutant F372V, SEQ ID NO: 367 (protein)
chain: MGTIETQTGFKLVGFNNFVRTNPKSDRFKVKRFHHVEFWCPDATNTARRFSWGLGMPIVAKSDLSTGNQTHASYLLRSGDLNFLFTAAYSPSISLSAPHPTASIPSFSAPTSFAFSASHGLGVRAVAIEVDDAEFAYTTSVNHGAIPSSPPVVLDNRVKLAEVQLYGDVVLRYVSYNDPIETSNPNPNHWFLPGFEPVEETSSNQSIDFGIQRLDHAVGNVPELSSALNYVKQFTGFHEFAEFTAEDVGTSESGLNSTVLANNEETVLLPMNEPVYGTKRKSQIQTYLEHNEGAGLQHLALMSNDIFKTLREMRKRSGIGGFEFMPSPPPTYYSNLKKRVGDVLNDEQIKECEELGILVDKDDQGTLLQIVTKPVGDRPTIFIEIIQRVGCMLKDDEGKEYQKGGCGGFGKGNFSELFKSIEEYEKTLEIKRTA
modifications: CaHPPDm-F372V Amino Acid Sequence
B3: HaHPPDm-F372V: Helianthus annuus HPPD mutant F372V, SEQ ID NO: 371 (protein)
chain: MGTEATVAAVVAGDESDHPTSAFKLVGFKNFIRTNPMSDKFTVKNFHHIEFWCSDATNTARRFSWGLGMPIIFKSDLSTGNSTHASYLLRSGHLNFLFTAPYSPSISPTTTTASIPTFSHSASRHFTATHGLAVRAIAVEVEDAETAFAVSVANGAKPSSPPVTLGHNDVVLSEVKLYGDVVLRYVSYKNNTNNNNNNDNDNYIFLPGFEAMDKTSSFQELDYGIRRLDHAVGNVPELAPAVDYVKSFTGFHEFAEFTAEDVGTSESGLNSVVLACNSEMVLIPMNEPVYGTKRKSQIQTYLEHNEGAGVQHLALASEDIFRTLREMRKRSGVGGFEFMPSPPPTYYRNLKSRAGDVLSDEQIKECEELGILVDRDDQGTLLQIVTKPVGDRPTIFIEIIQRVGCMVKDDEGKVQQKAGCGGFGKGNFSELFKSIEEYEKTLEARSTTAA
modifications: HaHPPDm-F372V Amino Acid Sequence
B4: SlHPPDm-F372V (protein)
chain: MGKQAAAAADDQQLPGDIEDKFKLVGFNHFVRTNPRSDFFTVKRFHHIEFWCGDATNTARRFSWGLGLPIAAISDLSTGNSVHASYLLRSSSSSQLQFLFTAPYSSAISTSSSASIPTFSVSSHRSFTATHGLGVRAIALEVENSRLAFSTCVAHGAKPVSEPVILNDEVVIAEVHLYGDVVLRFVSFLKDSNCFVFLPGFESVEGAQLDYGIRRLDHAVGNVPELGPVVEYIKSFTGFHEFAEFTAEDVGTAESGLNSVVLANNDETVLFPLNEPVYGTKRKSQIQTYLEHNEGAGVQHLALVTEDIFRTLREMRKRSGIGGFEFMPSPPPTYYKNLKTRAGDILSDEQIQECEELGILVDRDDQGTLLQIVTKPVGDRPTIFLEIIQRIGCMLKNEEGELYQKGGCGGFGKGNFSELFKSIEEYEKTLEAKQNTQVAIA
modifications: SlHPPDm-F372V Amino Acid Sequence
B5: MsHPPDm-F372V: Medicago sativa HPPD mutant F372V, SEQ ID NO: 373 (protein)
chain: MAIETETQTQTGFKLVGFKNFVRANPKSDRFKVKRFHHVEFWCTDATNTARRFSHGLGMPIVAKSDLSTGNQTHASYLLRSGDLNFLFSAAYSPSISLSSPSSTAAIPTFSASNCFSFSASHGLAVRAVAVEVEDAELAFTTSVNNGAIPSSPPVILENHVKLAEVRLYGDVVLRYVSYNDPNPNQNPNLLFLPGFERVSDESSNSSLDFGIRRLDHAVGNVPELSSAVKYVKDFTGFHEFAEFTAEDVGTSESGLNSVVLANNEETVLLPMNEPVYGTKRKSQIETYLEHNEGAGLQHLALKSEDIFRTLREMRKRSGVGGFEFMPSPPVTYYRNLKNRVGDVLSDEQIKECEELGILVDRDDQGTLLQIVTKPIGDRPTIFIEIIQRVGCMLKDEEGKEYQKGGCGGFGKGNFSELFKSIEEYEKTLETRRTA
modifications: MsHPPDm-F372V Amino Acid Sequence
B6: NtHPPDm-F372V: Nicotiana tabacum HPPD mutant F372V, SEQ ID NO: 377 (protein)
chain: MGKLETVTTTSAAAADDSSELTTNFKLVGFKNFIRTNPRSDFFSVKSFHHIEFWCGDATNTARRFSWSLGMPIAAKSDLSTGNSVHASYLLRPVSGSLQFLFTAPYSPSISTPSSAAIPSFSTSTHRSFTTTHGLGVRAVALEVENAYTAFSASVSRGAKPMFEPVTIDEQVAMAEVHLYGDVVLRFVSYLKDADNLVFLPGFEAMDETASYKELDYGIRRLDHAVGNVPELGPVVDYIKRFTGFHEFAEFTAEDVGTAESGLNSMVLANNDETVLLPLNEPVYGTKRKSQIQTYLEHNEGAGVQHLALVTEDIFKTLTEMRKRSGVGGFEFMPSPPPTYYKNLKNRAGDVLSDEQILACEELGILVDRDDQGTLLQIVTKPVGDRPTIFIEIIQRIGCMLKDGKGQVYQKGGCGGFGKGNFSELFRSIEEYEKTLEAKQANQVAAA
modifications: NtHPPDm-F372V Amino Acid Sequence
B7: BvHPPDm-F372V: Beta vulgaris HPPD mutant F372V, SEQ ID NO: 375 (protein)
chain: MGTLSPQPQTSPSQFKLVGYSNFIRVNPLSDLFPVKRFHHVEFWCGDATNVSRRFSWGLGMPIVAKSDLSTGNSVHASYLLRSGELHFLFTSPYSPSLSSPSSATIPTFSFSLFTSFLTSHGLAVRAVAVEVQDAEAAFHISVSNGASPVSPPIRLHDGVVLSEVHLYGDVVLRYVSTSSVVDGIFLPGFEEMLGESSFQELDFGLRRLDHAVGNVPELAPAIEYVKKFTGFHEFAEFTTEDVGTSESGLNSAVVANNDETVLFPMNEPVYGTKRKSQIQTYLEHNEGAGVQHLALMSEDIFWTLREMRKRSGLGGFEFMPSPPPTYYRNLRNRAADVLSEEQMKECEELGILVDKDDQGTLLQIVTKPIGDRPTMFIEIIQRIGCMMKDEEGKVYQKGGCGGFGKGNFSELFKSIEEYEKTLERKPIADTNAT
modifications: BvHPPDm-F372V Amino Acid Sequence
B8: GmHPPDm-F372V: Glycine max HPPD mutant F372V, SEQ ID NO: 365 (protein)
chain: MPMYTPSLSAPSSNHIQPSVTLPLYITTTKLNLKQQHHTTPMPIPMCNEIQAQAQAQAQPGFKLVGFKNFVRTNPKSDRFQVNRFHHIEFWCTDATNASRRFSWGLGMPIVAKSDLSTGNQIHASYLLRSGDLSFLFSAPYSPSLSAGSSAASSASIPSFDAATCLAFAAKHGFGVRAIALEVADAEAAFSASVAKGAEPASPPVLVDDRTGFAEVRLYGDVVLRYVSYKDAAPQAPHADPSRWFLPGFEAAASSSSFPELDYGIRRLDHAVGNVPELAPAVRYLKGFSGFHEFAEFTAEDVGTSESGLNSVVLANNSETVLLPLNEPVYGTKRKSQIETYLEHNEGAGVQHLALVTHDIFTTLREMRKRSFLGGFEFMPSPPPTYYANLHNRAADVLTVDQIKQCEELGILVDRDDQGTLLQIVTKPVGDRPTIFIEIIQRIGCMVEDEEGKVYQKGACGGFGKGNFSELFKSIEEYEKTLEAKRTA
modifications: GmHPPDm-F372V Amino Acid Sequence
B9: BnHPPDm-F372V: Brassica napus HPPD mutant F372V, SEQ ID NO: 369 (protein)
chain: MGHENAAVCETQQHDDAASPGFKLVGFSKFVRKNPKSDKFKVKRFHHIEFWCGDATNVSRRFSWGLGMRFSAKSDLSTGNMVHASYLLTSGDLRFLFTAPYSPSLSAGEAQPSATASIPSFDHASCRSFFSSHGLGVRAVAIEVEDAESAFSISVANGAVPSSPPNVLNGAVTIAEVKLYGDVVLRYVSYYNGTVSFLPGFESVDDTSSFPLDYGIRRLDHAVGNVPELGPALTYLAGFTGFHQFAEFTADDVGTAESGLNSAVLANNDEMVLLPINEPVHGTKRKSQIQTFLEHNEGAGLQHLALMSEDIFRTLREMRKRSGVGGFDFMPSPPPTYYKNLKKRVGDVLSEEQIEECEELGILVDRDDQGTLLQIVTKPLGDRPTIFIEIIQRVGCMKRDEEGKVYQSGGCGGFGKGNFSELFKSIEEYEKTLEAKQLVG
modifications: BnHPPDm-F372V Amino Acid Sequence
B10: StHPPDm-F372V: Solanum tuberosum HPPD mutant F372V, SEQ ID NO: 381 (protein)
chain: MGKQAATATATATATADDQQLPADIEDKYKLVGFNNFVRTNPRSDLFNVKRFHHIEFWCGDATNTARRFSWGLGLPIAAKSDLSTGNSVHASYLLRSSSSQLQFLFTAPYSPAISTPSSSSIPTFSVSSHRSFTETHGLGVRAIALEVENSRLAFSTCVSHGAKPVSEPVILNDEVVISEVHLYGDVVLRFVSFLKDSNRFVFLPGFELVEGAQLDYGIRRLDHAVGNVPQLGPVVEYIKSFTGFHEFAEFTAEDVGTAESGLNSVVLANNDETVLFPLNEPVYGTKRKSQIQTYLEHNEGAGVQHLALVTEDIFRTLREMRKRSGIGGFEFMPSPPPTYYKNLKSRAGDILSDEQIKECEELGILVDRDDQGTLLQIVTKPVGDRPTIFLEIIQRIGCMLQNAEGELYQKGGCGGFGKGNFSELFKSIEEYEKTLEAKQNTQVAIA
modifications: StHPPDm-F372V Amino Acid Sequence

Test system: Arabidopsis thaliana T1 plants
Assay: Topramezone tolerance of transgenic Arabidopsis thaliana T1 plants (pesticide damage grade by bleached leaf area, score, resistance evaluation)
Assay type: in vivo
Details: topramezone 25 g ai/ha (1x); HPPD F372V mutants, Table 7
Procedure, shortened: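 Eighteen days after sowing, wild-type and HPPD-transgenic T1 Arabidopsis receive a topramezone spray at 1×, 2× or 4× field rate (25–100 g ai/ha) or water. Seven days later each plant is graded by its proportion of bleached leaf area.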

Row | Molecule | Resistance evaluation
1 | B1 | Poorly resistant
2 | B2 | Poorly resistant
3 | B3 | Poorly resistant
4 | B4 | Poorly resistant
5 | B5 | Poorly resistant
6 | B6 | Poorly resistant
7 | B7 | Poorly resistant
8 | B8 | Poorly resistant
9 | B9 | Poorly resistant
10 | B10 | Poorly resistant

Same assay, conditions: topramezone 100 g ai/ha (4x); HPPD F372V mutants, Table 7

Row | Molecule | Resistance evaluation
11 | B1 | Non-resistant
12 | B2 | Non-resistant
13 | B3 | Non-resistant
14 | B4 | Non-resistant
15 | B5 | Non-resistant
16 | B6 | Non-resistant
17 | B7 | Non-resistant
18 | B8 | Non-resistant
19 | B9 | Non-resistant
20 | B10 | Non-resistant
